Data on one molecule can be found in US20060093613A1 (published 2006).

This assay concerns the target T1, influenza virus nucleoprotein peptide on H-2Db (mouse).
T1 peptide: ASNENMDAM
Nature of the assay: Kd or kinetics.

B1: F5 TCR (TCR, V domains shown)
Valpha: GDSVTQMQGQVTLSEDDFLFINCTYSTTWYPTLFWYVQYPGEGPQLLLKVTTANNKGISRGFEATYDKGTTSFHLQKASVQESDSAVYYCVLGDRQGGRALIFGTGTTVSVSP
Vbeta: KAGVTQTPRYLIKTRGQQVTLSCSPISGHRSVSWYQQTPGQGLQFLFEYFSETQRNKGNFPGRFSGRQFSNSRSEMNVSTLELGDSALYLCASSFDSGNSPLHFGNGTRLTVT
B1: the binding result is “recognises”.
